Assay results as given in IntAct's records for PubMed 23782464.

B1: Bcl-2 homologous antagonist/killer (Homo sapiens), Q16611 (parent)
chain: MASGQGPGPPRQECGEPALPSASEEQVAQDTEEVFRSYVFYRHQQEQEAEGVAAPADPEMVTLPLQPSSTMGQVGRQLAIIGDDINRRYDSEFQTMLQHLQPTAENAYEYFTKIATSLFESGINWGRVVALLGFGYRLALHVYQHGLTGFLGQVTRFVVDFMLHHCIARWIAQRGGWVAALNLGNGPILNVLVVLGVVLLGQFVVRRFFKS
partner: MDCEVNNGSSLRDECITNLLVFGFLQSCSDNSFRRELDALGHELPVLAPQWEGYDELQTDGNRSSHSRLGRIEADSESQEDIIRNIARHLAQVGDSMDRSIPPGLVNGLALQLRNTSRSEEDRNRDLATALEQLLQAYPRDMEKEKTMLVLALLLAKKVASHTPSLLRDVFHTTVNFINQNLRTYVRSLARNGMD

Variants of: B1
Settings: with bid_human BID

effect of a mutation on the interaction	Variant
increasing interaction	MASGQGPGPPRQECGEPALPSASEEQVAQDTEEVFRSYVFYRHQQEQEAEGVAAPADPEMVTLPLQPSSTMGQVGRQLAIIGDDINRRYDSEFQTMLQHLQPTAENAYEEFTKIATSLFESGINWGRVVALLGFGYRLALHVYQHGLTGFLGQVTRFVVDFMLHHCIARWIAQRGGWVAALNLGNGPILNVLVVLGVVLLGQFVVRRFFKS [Y110E]
